Experimental findings from doi:10.1101/2021.08.28.457928 (bioRxiv, 2021) are described below.

First the molecules themselves.
B1: SNX2_(16-33) peptide (peptide)
peptide: TDFEDLEDGEDLFTSTVS
notes: SNX2, human, residues 16 to 33; also called SNX2 16 to 33; first aDLF motif of SNX2; source: synthetic peptide (Genscript)
B2: isolated FERM domain of human SNX27 (domain or fragment, UniProt Q96L92 269-531, looked up)
chain: YNGVSDVELRVALPDGTTVTVRVKKNSTTDQVYQAIAAKVGMDSTTVNYFALFEVISHSFVRKLAPNEFPHKLYIQNYTSAVPGTCLTIRKWLFTTEEEILLNDNDLAVTYFFHQAVDDVKKGYIKAEEKSYQLQKLYEQRKMVMYLNMLRTCEGYNEIIFPHCACDSRRKGHVITAISITHFKLHACTEEGQLENQVIAFEWDEMQRWDTDEEGMAFCFEYARGEKKPRWVKIFTPYFNYMHECFERVFCELKWRKENIFQM
notes: FERM domain of human SNX27; The AlphaFold2 modelling took the FERM domain as residues 269 to 531; also called hSNX27_(FERM)
B3: SNX1_(35-51) peptide (peptide)
peptide: EAGDSDTEGEDIFTGAA
notes: SNX1, human, residues 35 to 51; also called first aDLF motif of human SNX1; source: synthetic peptide (Genscript)
B4: SNX2_(62-82) peptide (peptide)
peptide: TEVVLDDDREDLFAEATEEVS
notes: SNX2, human, residues 62 to 82; also called SNX2 62 to 82; second aDLF motif of SNX2; source: synthetic peptide (Genscript)
B5: GST-mSNX1(1-139) (domain or fragment, mouse, UniProt Q9WV80 1-139, looked up)
chain: MASGGGGCSASERLPPPFPGMDPESEGAAGASEPEAGDSDTEGEDIFTGAAAATKPQSPKKTTSLFPIKNGSKENGIHEDQDQEPQDLFADATVELSLDSTQNNQKTMPGKTLTSHSPQEATNSPKPQPSYEELEEEEQ
notes: SNX1, mouse, residues 1 to 139; Vector pGEX4T-2, thrombin-cleavable GST; named GST-mSNX1(1-139) in the ITC; also called N-terminal extension of mouse SNX1; source: E. coli BL21 CodonPlus (DE3), purified (glutathione Sepharose, SEC); not shown: GST, N-terminal, kept
B6: SNX1_(75-92) peptide (peptide)
peptide: NGIHEEQDQEPQDLFADA
notes: SNX1, human, residues 75 to 92; also called SNX1 75 to 92; hSNX1_(75-92); source: synthetic peptide (Genscript)

What all share (conditions): both partners purified
Assay [1] addresses T1, full-length mouse SNX27 (mouse, UniProt Q3UHD6 1-539).
T1 construct: SNX27, mouse, full length; Vector pMCSG7, ligation independent cloning; also called mSNX27FL
Briefly: ITC; 800 μM SNX1 or SNX2 peptide titrated into 20 μM full-length mouse SNX27; 25 °C; 50 mM HEPES pH 7.5, 200 mM NaCl, 5% glycerol, 1 mM β-ME with 1:10 peptide buffer (100 mM Tris-HCl pH 10.6); single-site model.

In assay [2] the target is T2, full-length mouse SNX1 with an N-terminal His-tag (mouse, UniProt Q9WV80 1-522).
T2 construct: SNX1, mouse, full length; Vector pMW172Kan; also called mSNX1FL; His-SNX1FL; source: E. coli BL21 CodonPlus (DE3), purified (TALON or Ni-NTA, SEC); not shown: His-tag, N-terminal, kept
Briefly: ITC; 800 μM hSNX27 FERM titrated into 20 μM GST-mSNX1(1-139) or His-SNX1FL; 25 °C; 50 mM HEPES pH 7.5, 200 mM NaCl, 5% glycerol, 1 mM β-ME; single-site model. (In ITC the heat of successive injections is recorded.)

Assay [3] deals with B2. The description is as above.
The target of assay [4] is T3, human SNX27 full length, wild type (human, UniProt Q96L92 1-541).
T3 construct: SNX27, human, full length; also called hSNX27FL; hSNX27 WT
Briefly: ITC; 600 μM SNX1(75-92) peptide titrated into 20 μM hSNX27 wild type or single-site mutant; 25 °C; 50 mM HEPES pH 7.5, 200 mM NaCl, 5% glycerol, 1 mM β-ME; single-site model.

The target in assay [5] is T4, human SNX27(K496D) (human, UniProt Q96L92 1-541, K496D).
T4 construct: SNX27, human, full length; the text prints R496D, the methods and the legend K496D; also called hSNX27 K496D; SNX27(R496D)
Described as above.

In assay [1], B1 had a Kd of 37.8 µM. In other words, the double-digit micromolar range.

In assay [2], B2 gave a Kd of 41 µM.

Regarding B3, in assay [1], the dissociation constant Kd turned out to be 33.4 µM.

B4 displayed a Kd in assay [1] of 22.6 µM.

Regarding B5, in assay [3], the Kd came out at 39.1 µM.

As for B6, the Kd in assay [4] is 12.7 µM; in assay [5] it was 56.4 µM; in assay [1], 13.3 µM.

A word on the Kd: it is a measure of binding affinity in units of concentration. High values mean a looser complex, low ones a tighter complex.
